Measured values from patent US20240384250A1, “FIBROBLAST GROWTH FACTOR 23 MODULATING COMPOUNDS” (THE UAB RESEARCH FOUNDATION, priority 2021, published 2024).
“Also recorded” adds a separate entry of the source. Each block holds one molecule with its values, some of them ahead of it.

Key:
FGF23 binding to FGFR2c = molecular target: T1, FGF23 binding to FGFR2c (Homo sapiens, UniProt P21802); assay: Pull-down of FGF23 with Fc-FGFR on protein A/G beads with sKL, heparin or PBS; conditions: with heparin, or alone
T1 construct: Fc-coupled FGFR ectodomains were immobilized on protein A/G beads; purchased R&D Systems 2604FG025/CF or 2629FG025/CF; 712FR050
T1 sequence (P21802 22-377 limits assumed): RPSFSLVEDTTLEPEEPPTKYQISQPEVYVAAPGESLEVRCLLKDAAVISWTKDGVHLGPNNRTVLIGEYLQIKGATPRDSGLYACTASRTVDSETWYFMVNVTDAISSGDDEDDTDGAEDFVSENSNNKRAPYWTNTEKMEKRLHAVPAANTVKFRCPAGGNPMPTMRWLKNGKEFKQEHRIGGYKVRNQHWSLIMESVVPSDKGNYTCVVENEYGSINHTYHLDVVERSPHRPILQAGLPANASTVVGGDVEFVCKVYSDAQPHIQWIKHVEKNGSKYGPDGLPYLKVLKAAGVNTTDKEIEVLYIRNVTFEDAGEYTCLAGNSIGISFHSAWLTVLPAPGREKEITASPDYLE
Method: To study the interaction between Fc-tagged FGFR isoforms (Fc-FGFR), FGF isoforms, and sKL, immunoprecipitation studies were conducted. Protein A beads (6501, BioVision) and protein G beads (6511, BioVision) were used at 25 μl of a 50% stock slurry per sample in a total bead volume of 50 μl. Beads were washed 5× in activity buffer (50 mM Tris [pH 7.4], 200 mM NaCl, 0.01% Tween 20). Bead spin-down assays were all performed for 2 minutes at 5000 g. Beads were resuspended in 1 ml of activity buffer in a 1.5-ml snap cap tube. One microgram of Fc-FGFR1 to 4 was incubated with the beads for 1 hour on a bead rotator. Control samples were incubated with 2 μg of anti-FGF antibody instead of Fc-FGFR. Beads were then pelleted at 5000 g for 2 minutes and washed 5× with activity buffer. Beads were resuspended and incubated with different combinations of 500 ng of FGF, 1 μg of sKL, 1.6 United States Pharmacopeia (USP) units of heparin, or phosphate-buffered saline (PBS). Beads were incubated for 1 hour on a tube rotator, and beads were pelleted and washed as before. One hundred microliters of 1× Laemmli sample buffer (1610737, Bio-Rad) with 1.42 M 2-mercaptoethanol was added, and samples were boiled for 5 minutes. Samples were analyzed using SDS-PAGE and Western blotting.
The sample (20 μl) was loaded onto Mini-PROTEAN TGX Precast Gel 4-20% for experiments with <9 samples (4568094, Bio-Rad) or Criterion TGX Precast Gel 4-20% (5678094, Bio-Rad) for experiments with >9 samples. Gels were run in 1× Tris/Glycine/SDS buffer (1610732, Bio-Rad) at 150 V and stopped when the sample dye reached the end of the gel. Gels were removed and electrotransferred via a semi-dry cassette (1703940, Bio-Rad) in I× Tris/Glycine buffer (1610734, Bio-Rad) with 20% methanol. Gels were transferred onto polyvinylidene diflouride membranes (IPVH00010, Millipore) at 20 V for 1 hour. Membranes were then blocked in 5% dried milk with 0.5% Tween 20 diluted in Tris-buffered saline (TBST; pH 7.5) for 1 hour and probed with antibodies against specific antigens at 1:1000 in TBST with 5% dried milk. Blots were washed 3× for 5 minutes in TBST and probed with HRP-coupled secondary antibodies against specific species at 1:10,000 in TBST with 5% dried milk. Membranes were imaged on the SRX-101A X-ray film developer (Konica Minolta).

mouse model of CKD = conditions: administration of sKL; cited from earlier work
[1] = system: isolated adult ventricular cardiac myocytes; conditions: previous studies; cited from earlier work
FGF2 binding to FGFR1c = molecular target: T2, FGF2 binding to FGFR1c (Homo sapiens, UniProt P11362); assay: Plate-based binding of paracrine FGF to Fc-FGFR1c with heparin and/or sKL; conditions: Fc-FGFR1c preincubated with FLAG-sKL, absence and presence of heparin
T2 construct: a chimeric protein consisting of the FGFR1 ectodomain and the Fc region of a human IgG; purchased R&D Systems 233-FB/CF; 658FR050
T2 sequence (P11362 22-376 limits assumed): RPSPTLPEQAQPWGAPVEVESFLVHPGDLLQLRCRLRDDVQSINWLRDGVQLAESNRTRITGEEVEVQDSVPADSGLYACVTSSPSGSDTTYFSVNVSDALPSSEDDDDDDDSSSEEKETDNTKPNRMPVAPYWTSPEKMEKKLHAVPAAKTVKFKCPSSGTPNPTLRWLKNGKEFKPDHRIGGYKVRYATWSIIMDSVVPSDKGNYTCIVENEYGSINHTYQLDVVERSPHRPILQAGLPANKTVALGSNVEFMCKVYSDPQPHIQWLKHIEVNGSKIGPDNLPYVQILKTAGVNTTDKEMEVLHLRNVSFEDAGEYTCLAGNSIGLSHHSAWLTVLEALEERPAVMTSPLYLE
Method: (§1) Proteins were coated on 96-well plates (MaxiSorp; 439454, Thermo Fisher Scientific), and proteins were added to wells in 100 μl of enzyme-linked immunosorbent assay (ELISA) coating buffer (E107, Bethyl Laboratories) with a lid placed overtop and incubated at 4° C. overnight. Plates were washed 5× with 350 μl of assay buffer (50 mM Tris [pH 7.4], 200 mM NaCl, 0.01% Tween 20) on a 50 TS microplate washer (BioTek). Plates were blocked for 1 hour in 200 μl of assay buffer with 0.5% BSA. Plates were washed as before, and proteins were incubated on plates in 100 μl of assay buffer with 0.5% BSA. Proteins or heparin was incubated in orders described in the respective figure legends. Assays using FLAG-tag-based detection were incubated with anti-FLAG coupled to HRP at 1:20,000, and assays using Fc detection were incubated with anti-human Fc coupled to HRP at 1:10,000. Plates were washed as above, and 100 μl of 3,3′,5,5′-tetramethylbenzidine (TMB) substrate (E102, Bethyl Laboratories) was added for 15 to 20 minutes until positive wells developed a dark blue color. Reactions were stopped with ELISA stop solution (E115, Bethyl Laboratories) and analyzed using the Synergy HI plate reader (BioTek) at 450 nm wavelength. […] As a control to remove background absorbance values, wells were coated with an equal amount of BSA to match the amount of protein coated in experimental wells and treated the same as experimental wells. To study the effects of sKL on the binding between paracrine FGFs and FGFRs, plates were run as above except coated with paracrine FGFs. Fc-FGFR1 was preincubated with sKL or vehicle for 60 minutes, and then the combination was added to wells and the assay was run as before.

FGF8b binding to FGFR1c = molecular target: T3, FGF8b binding to FGFR1c (Homo sapiens, UniProt P11362); assay: as above; conditions: Fc-FGFR1c preincubated with 400 ng FLAG-sKL
T3 construct: a chimeric protein consisting of the FGFR1 ectodomain and the Fc region of a human IgG; purchased R&D Systems 423-F8/CF; 658FR050
T3 sequence (P11362 22-376 limits assumed): T2 sequence (P11362 22-376 limits assumed)
Method: as §1

FGFR1c = molecular target: T4, FGFR1c (Homo sapiens, UniProt P11362); assay: Plate-based binding assay, FGFR1c coated, FLAG-sKL detected with anti-FLAG HRP; conditions: for binding of FLAG-sKL to coated FGFR1c: 40 ng FGFR1c coated, 80 ng FLAG-sKL, compared with FGFR4 and FGF23
T4 construct: Fc-coupled FGFR ectodomains were immobilized on protein A/G beads; purchased R&D Systems 658FR050
T4 sequence (P11362 22-376 limits assumed): T2 sequence (P11362 22-376 limits assumed)
Method: as §1

[2] = system: FGF19 binding to FGFR isoforms 1c, 2c, 3c, 4; assay: Pull-down and plate binding of FGF19 to FGFR isoforms with sKL or heparin; design: species or system human
Chain of FGF19 binding to FGFR isoforms 1c, 2c, 3c, 4 (O95750 25-216): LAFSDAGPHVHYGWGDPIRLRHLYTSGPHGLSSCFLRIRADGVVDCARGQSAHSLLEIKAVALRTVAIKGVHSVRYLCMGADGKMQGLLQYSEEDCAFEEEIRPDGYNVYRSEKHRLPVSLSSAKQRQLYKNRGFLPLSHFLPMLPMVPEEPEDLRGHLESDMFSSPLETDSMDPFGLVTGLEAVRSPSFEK
Method: To study the interaction between Fc-tagged FGFR isoforms (Fc-FGFR), FGF isoforms, and sKL, immunoprecipitation studies were conducted. Protein A beads (6501, BioVision) and protein G beads (6511, BioVision) were used at 25 μl of a 50% stock slurry per sample in a total bead volume of 50 μl. Beads were washed 5× in activity buffer (50 mM Tris [pH 7.4], 200 mM NaCl, 0.01% Tween 20). Bead spin-down assays were all performed for 2 minutes at 5000 g. Beads were resuspended in 1 ml of activity buffer in a 1.5-ml snap cap tube. One microgram of Fc-FGFR1 to 4 was incubated with the beads for 1 hour on a bead rotator. Control samples were incubated with 2 μg of anti-FGF antibody instead of Fc-FGFR. […] Samples were analyzed using SDS-PAGE and Western blotting.
Proteins were coated on 96-well plates (MaxiSorp; 439454, Thermo Fisher Scientific), and proteins were added to wells in 100 μl of enzyme-linked immunosorbent assay (ELISA) coating buffer (E107, Bethyl Laboratories) with a lid placed overtop and incubated at 4° C. overnight. […] Reactions were stopped with ELISA stop solution (E115, Bethyl Laboratories) and analyzed using the Synergy HI plate reader (BioTek) at 450 nm wavelength. […] As a control to remove background absorbance values, wells were coated with an equal amount of BSA to match the amount of protein coated in experimental wells and treated the same as experimental wells. […]

FGF23 co-precipitation with Fc-FGFR2c (FGF23 binding to FGFR2c): no FGF23 binding was detected
B1: FGF23: recombinant fibroblast growth factor 23 protein from R&D Systems (protein)
chain: YPDTSPLLGSNWGSLTHLYTATARTSYHLQIHRDGHVDGTPHQTIYSALMITSEDAGSVVITGAMTRRFLCMDLHGNIFGSLHFSPENCKFRQWTLENGYDVYLSQKHHYLVSLGRAKRIFQPGTNPPPFSQFLARRNEVPLLHFYTVRPRRHTRSAEDPPERDPLNVLKPRPRATPVPVSCSRELPSAEEGGPAASDPLGVLRRGRGDARGGAGGADRCRPFPRFV

binding of FGFR1c to FGF2 in the presence of sKL (FGF2 binding to FGFR1c; listed as FLAG-sKL): significantly reduced
binding of FGFR1c to FGF8b in the presence of sKL (FGF8b binding to FGFR1c): reduced the binding
binding of FLAG-sKL to coated FGFR1c (FGFR1c): highest affinity
FGFR1c binding, protein from HEK293 lysates instead of supernatants (FGFR1c; 200 ng FGFR1c coated): smaller increase
B2: sKL: recombinant soluble α-klotho ectodomain, mouse aa 35-982 and human aa 34-981, FLAG- or Strep/His-tagged, purified from HEK293 cells (protein)
chain: EPGDGAQTWARFSRPPAPEAAGLFQGTFPDGFLWAVGSAAYQTEGGWQQHGKGASIWDTFTHHPLAPPGDSRNASLPLGAPSPLQPATGDVASDSYNNVFRDTEALRELGVTHYRFSISWARVLPNGSAGVPNREGLRYYRRLLERLRELGVQPVVTLYHWDLPQRLQDAYGGWANRALADHFRDYAELCFRHFGGQVKYWITIDNPYVVAWHGYATGRLAPGIRGSPRLGYLVAHNLLLAHAKVWHLYNTSFRPTQGGQVSIALSSHWINPRRMTDHSIKECQKSLDFVLGWFAKPVFIDGDYPESMKNNLSSILPDFTESEKKFIKGTADFFALCFGPTLSFQLLDPHMKFRQLESPNLRQLLSWIDLEFNHPQIFIVENGWFVSGTTKRDDAKYMYYLKKFIMETLKAIKLDGVDVIGYTAWSLMDGFEWHRGYSIRRGLFYVDFLSQDKMLLPKSSALFYQKLIEKNGFPPLPENQPLEGTFPCDFAWGVVDNYIQVDTTLSQFTDLNVYLWDVHHSKRLIKVDGVVTKKRKSYCVDFAAIQPQIALLQEMHVTHFRFSLDWALILPLGNQSQVNHTILQYYRCMASELVRVNITPVVALWQPMAPNQGLPRLLARQGAWENPYTALAFAEYARLCFQELGHHVKLWITMNEPYTRNMTYSAGHNLLKAHALAWHVYNEKFRHAQNGKISIALQADWIEPACPFSQKDKEVAERVLEFDIGWLAEPIFGSGDYPWVMRDWLNQRNNFLLPYFTEDEKKLIQGTFDFLALSHYTTILVDSEKEDPIKYNDYLEVQEMTDITWLNSPSQVAVVPWGLRKVLNWLKFKYGDLPMYIISNGIDDGLHAEDDQLRVYYMQNYINEALKAHILDGINLCGYFAYSFNDRTAPRFGLYRYAADQFEPKASMKHYRKIIDSNGFPGPETLERFCPEEFTVCTECSFFHTRKS
modifications: left off: small tags and cut ends
notes: recombinant soluble α-klotho ectodomain, mouse aa 35-982 and human aa 34-981, FLAG- or Strep/His-tagged, purified from HEK293 cells
development of ventricular arrhythmias (mouse model of CKD): protects
FGF23-induced calcium mishandling, altered contractility, proarrhythmic calcium release [1]: can be blocked
binding of FGFR1c to FGF2 in the presence of sKL (FGF2 binding to FGFR1c): reduced; also recorded: this effect did not occur in the presence of sKL
binding of FLAG-sKL to coated FGFR1c (FGFR1c; listed as FLAG-sKL): highest affinity; also recorded: bound FGFR1c
binding of FGF19 to any of the FGFR isoforms [2]: did not mediate binding; also recorded: did not lead to complex formation; also recorded: did not bind any of the FGFR isoforms
